Where two headings read alike, the source gives them in different places.
How the values were obtained:
[1] = target: human epidermal growth factor receptor (EGFR) on cells and tissues (human, UniProt P00533 25-1210); assay: cell-based or functional assay
[2] = target: T1, His-tagged soluble extracellular domain of EGFR (sEGFR-H6; Sino Biologics, Cat #10001-H08H) (human, UniProt P00533 25-645); assay: ELISA on coated sEGFR-H6; pH 6.5, 16.7 mM lactic acid, 25% human serum
T1 construct: Bought protein; also called EGFR sECD; soluble extracellular domain of EGF receptor

[3] = target: T1, His-tagged soluble extracellular domain …; assay: pH-sensitive ELISA, transfected supernatant adjusted to 1 ng/mL
[4] = target: T1, His-tagged soluble extracellular domain …; assay: pH-sensitive ELISA, transfected supernatant adjusted to 4 ng/mL
[5] = target: T1, His-tagged soluble extracellular domain …; assay: pH-sensitive ELISA, transfected supernatant adjusted to 2 ng/mL
[6] = target: T1, His-tagged soluble extracellular domain …; assay: ELISA on coated sEGFR-H6; pH 7.4, 1 mM lactic acid, 25% human serum
[7] = target: T1, His-tagged soluble extracellular domain …; assay: pH-sensitive ELISA on coated sEGFR-H6
[8] = target: T1, His-tagged soluble extracellular domain …; assay: ELISA on coated sEGFR-H6; pH 6.0, 16.7 mM lactic acid, 25% human serum
[9] = target: T1, His-tagged soluble extracellular domain …; assay: ELISA on coated sEGFR-H6; pH 6.5, 16.7 mM lactic acid, 25% human serum; remark: listed apart in the source
[10] = target: T1, His-tagged soluble extracellular domain …; assay: ELISA on coated sEGFR-H6; pH 6.0, 16.7 mM lactic acid, 25% human serum; remark: listed apart in the source
[11] = target: T1, His-tagged soluble extracellular domain …; assay: ELISA on coated sEGFR-H6; pH 7.4, 1 mM lactic acid, 25% human serum; remark: listed apart in the source
[12] = target: T1, His-tagged soluble extracellular domain …; assay: pH-sensitive ELISA on coated sEGFR-H6; remark: listed apart in the source
[13] = target: T1, His-tagged soluble extracellular domain …; assay: ELISA on coated sEGFR-H6; pH 6.5, 16.7 mM lactic acid, 25% human serum; remark: listed apart in the source
[14] = target: T1, His-tagged soluble extracellular domain …; assay: ELISA on coated sEGFR-H6; pH 7.4, 1 mM lactic acid, 25% human serum; remark: listed apart in the source
[15] = target: T1, His-tagged soluble extracellular domain …; assay: ELISA on coated sEGFR-H6; pH 6.0, 16.7 mM lactic acid, 25% human serum; remark: listed apart in the source
[16] = target: T1, His-tagged soluble extracellular domain …; assay: pH-sensitive ELISA on coated sEGFR-H6; remark: listed apart in the source

B1: huY104D-MMAE antibody-drug conjugate (antibody, human IgG1, kappa)
heavy: not shown
light: AIQLTQSPSSLSASVGDRVTITCRASQSIGTNIHWYLQKPGQSPQLLIYYASESISGIPDRFSGSGSGTDFTLTISRLEPEDFAVYYCQQNNNWPTTFGQGTKVEIKRTVAAPSVFIFPPSDEQLKSGTASVVCLLNNFYPREAKVQWKVDNALQSGNSQESVTEQDSKDSTYSLSSTLTLSKADYEKHKVYACEVTHQGLSSPVTKSFNRGEC
modifications: MMAE conjugated as described in Example 18 (maleimidocaproyl-vcPAB linker on reduced disulfide cysteines)
[1]
  IC50 for cell growth inhibition of keratinocytes at pH 7.4: ~17 nM
  cell growth inhibition of HT29 cells at pH 6.8; concentration for about 50% inhibition: ~22 nM
  cell growth inhibition of HT29 cells at pH 6.8; maximum concentration tested: ~80%

B2: huY104E-MMAE antibody-drug conjugate (antibody, human IgG1, kappa)
heavy: not shown
light: B1 light
modifications: MMAE conjugated as described in Example 18 (maleimidocaproyl-vcPAB linker on reduced disulfide cysteines)
[1]
  IC50 for cell growth inhibition of keratinocytes at pH 7.4: ~5.4 nM
  cell growth inhibition of HT29 cells at pH 6.8; concentration for about 50% inhibition: ~22 nM
  cell growth inhibition of HT29 cells at pH 6.8; maximum concentration tested: ~80%

B3: humanized Y104D/Q111P cetuximab mutant antibody (DP-h7) (antibody, human IgG1, kappa)
heavy: not shown
light: B1 light
notes: Full-length IgG; also called DP-h07
[2]
  D (maximum) of 4-parameter fit: 3.83 OD450
  EC50: 6.91 ng/mL
[3]
  pH 6.0/pH 7.4 OD ratio: 17.4
[4]
  pH 6.0/pH 7.4 OD ratio: 11.3
[5]
  pH 6.0/pH 7.4 OD ratio: 7.21
[6]
  D (maximum) of 4-parameter fit: 3.14 OD450
  EC50: 0.0336 µg/mL
[7]
  ratio of binding activity pH 6.0/7.4 (inverse EC50): 8.1
  ratio of binding activity pH 6.5/7.4 (inverse EC50): 4.86
[8]
  D (maximum) of 4-parameter fit: 3.83 OD450
  EC50: 4.15 ng/mL

B4: humanized Y104D anti-EGFR antibody (D-h) (antibody, human IgG1, kappa)
heavy: not shown
light: B1 light
notes: Full-length IgG; also called huY104D; D-h07
[9]
  D (maximum) of 4-parameter fit: 3.82 OD450
  EC50: 0.0127 µg/mL
[2]
  D (maximum) of 4-parameter fit: 3.84 OD450
  EC50: 7.57 ng/mL
[10]
  D (maximum) of 4-parameter fit: 3.88 OD450
  EC50: 6.77 ng/mL
[11]
  D (maximum) of 4-parameter fit: 2.03 OD450
  EC50: 0.0564 µg/mL
[6]
  D (maximum) of 4-parameter fit: 3.45 OD450
  EC50: 0.0302 µg/mL
[12]
  ratio of binding activity pH 6.0/7.4 (inverse EC50): 8.33
  ratio of binding activity pH 6.5/7.4 (inverse EC50): 4.44
[7]
  ratio of binding activity pH 6.0/7.4 (inverse EC50): 6.2
  ratio of binding activity pH 6.5/7.4 (inverse EC50): 3.99
[8]
  D (maximum) of 4-parameter fit: 3.89 OD450
  EC50: 4.87 ng/mL

B5: humanized Y104E/Q111P anti-EGFR antibody (EP-h) (antibody, human IgG1, kappa)
heavy: not shown
light: B1 light
notes: Full-length IgG; also called EP-h07
[9]
  D (maximum) of 4-parameter fit: 3.93 OD450
  EC50: 0.0121 µg/mL
[2]
  D (maximum) of 4-parameter fit: 3.89 OD450
  EC50: 6.37 ng/mL
[10]
  D (maximum) of 4-parameter fit: 3.91 OD450
  EC50: 4.28 ng/mL
[11]
  D (maximum) of 4-parameter fit: 1.83 OD450
  EC50: 0.209 µg/mL
[6]
  D (maximum) of 4-parameter fit: 2.91 OD450
  EC50: 0.0698 µg/mL
[12]
  ratio of binding activity pH 6.0/7.4 (inverse EC50): 48.8
  ratio of binding activity pH 6.5/7.4 (inverse EC50): 17.3
[7]
  ratio of binding activity pH 6.0/7.4 (inverse EC50): 17.8
  ratio of binding activity pH 6.5/7.4 (inverse EC50): 11
[8]
  D (maximum) of 4-parameter fit: 3.92 OD450
  EC50: 3.92 ng/mL

B6: humanized Y104E anti-EGFR antibody (E-h) (antibody, human IgG1, kappa)
heavy: not shown
light: B1 light
notes: Full-length IgG; also called huY104E; E-h07
[9]
  D (maximum) of 4-parameter fit: 3.94 OD450
  EC50: 0.00982 µg/mL
[2]
  D (maximum) of 4-parameter fit: 3.85 OD450
  EC50: 5.87 ng/mL
[10]
  D (maximum) of 4-parameter fit: 3.87 OD450
  EC50: 4.82 ng/mL
[11]
  D (maximum) of 4-parameter fit: 1.44 OD450
  EC50: 0.0593 µg/mL
[6]
  D (maximum) of 4-parameter fit: 3.23 OD450
  EC50: 0.0461 µg/mL
[12]
  ratio of binding activity pH 6.0/7.4 (inverse EC50): 12.3
  ratio of binding activity pH 6.5/7.4 (inverse EC50): 6.04
[7]
  ratio of binding activity pH 6.0/7.4 (inverse EC50): 14.5
  ratio of binding activity pH 6.5/7.4 (inverse EC50): 7.85
[8]
  D (maximum) of 4-parameter fit: 3.92 OD450
  EC50: 3.18 ng/mL

B7: flag-tagged humanized T030F/Y104D/Q111P mutant anti-EGFR antibody (FDP-h3) (antibody, human IgG1, kappa, V domains shown)
VH: EVQLVQSGAEVKKPGATVKISCKVSGFSLFNYGVHWVRQATGQGLEWMGVIWSGGNTDYNTPFTSRFTISRDDSKNTAYLQMNSLKTEDTAVYYCARALTYYDDEFAYWGPGTLVTVSS
VL: AIQLTQSPSSLSASVGDRVTITCRASQSIGTNIHWYLQKPGQSPQLLIYYASESISGIPDRFSGSGSGTDFTLTISRLEPEDFAVYYCQQNNNWPTTFGQGTKVEIKR
notes: also called FDP-h03
[13]
  D (maximum) of 4-parameter fit: 3.76 OD450
  EC50: 4.87 ng/mL
[14]
  D (maximum) of 4-parameter fit: 3.65 OD450
  EC50: 0.0326 µg/mL
[15]
  D (maximum) of 4-parameter fit: 3.79 OD450
  EC50: 4.33 ng/mL
[16]
  ratio of binding activity pH 6.0/7.4 (inverse EC50): 7.53
  ratio of binding activity pH 6.5/7.4 (inverse EC50): 6.69
